Data set [1] has as its target T1, cHAD (Caenorhabditis elegans, UniProt P34439).
T1 construct: gene F54C8.1; C-terminal GST tag cleaved; pEXS-CG vector, E. coli BL21(DE3)
T1 sequence (P34439 1-298): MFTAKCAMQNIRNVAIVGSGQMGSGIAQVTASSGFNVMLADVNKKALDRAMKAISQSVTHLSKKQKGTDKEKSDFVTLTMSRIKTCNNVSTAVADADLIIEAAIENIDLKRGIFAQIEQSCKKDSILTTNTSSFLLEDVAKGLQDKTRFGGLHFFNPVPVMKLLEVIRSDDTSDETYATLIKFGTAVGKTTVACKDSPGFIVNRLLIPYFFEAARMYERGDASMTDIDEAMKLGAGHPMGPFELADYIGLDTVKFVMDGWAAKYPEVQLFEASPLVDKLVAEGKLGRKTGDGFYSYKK
Description: difference absorption spectroscopy of the ternary charge-transfer complex, […] nm. In kind it is binding. The following applies: 2 mM NAD+ with 2 mM acetoacetyl-CoA, 0.2 M citrate/phosphate pH 7.0, ambient temperature, 2 mg/ml protein; abortive ternary complex.

For data set [2], the target named is T2, cHAD (Caenorhabditis elegans, UniProt P34439, Y209A).
T2 construct: gene F54C8.1; C-terminal GST tag cleaved; pEXS-CG vector, E. coli BL21(DE3)
T2 sequence (P34439 1-298 Y209A): T1 sequence (P34439 1-298) with Y209A
Description: Trp-NADH FRET titration, ex […] nm, em […] nm, Hill fit. In kind it is binding. The following applies: 10 mM citrate/phosphate pH 7.0, 150 mM NaCl, ambient temperature, 0.58 µM protein, 0-340 µM NADH.

Data set [3] deals with the molecule itself. Description: SEC-MALS; SEC-LS/UV/RI; WTC-030S5 column, 20 mM MES pH 6.0, 100 mM sodium chloride; 100 µg protein injected, 0.5 ml/min. For orientation: SEC sorts molecules by how far they enter the pores of the column.
Substrate in the data set “purified protein”: CC(=O)CC(=O)SCCNC(=O)CCNC(=O)[C@H](O)C(C)(C)COP(=O)(O)OP(=O)(O)OC[C@H]1O[C@@H](n2cnc3c(N)ncnc32)[C@H](O)[C@@H]1OP(=O)(O)O
Description: purified protein. The conditions noted are these: 100 µM NADH (saturating), 0.1 M citrate/phosphate pH 7.0, 0.1 mM dithiothreitol, 298 K, 23 nM protein, AACoA 30-70 µM, 25.0 °C. In kind it is biochemical, Caenorhabditis elegans.

Data set [4] concerns the molecule itself. Description: cross-linking; EGS, protein:EGS 1:50, on ice 40 min; protein diluted to 2 mg/ml in 0.2 M Na2HPO4, 0.1 M citrate pH 7.0; SDS-PAGE.

Substitutions are numbered along the chain they refer to. Numbers in names are those of the source.

For the molecule `NC(=O)c1ccc[n+]([C@@H]2O[C@H](COP(=O)(O)OP(=O)(O)OC[C@H]3O[C@@H](n4cnc5c(N)ncnc54)[C@H](O)[C@@H]3O)[C@@H](O)[C@H]2O)c1` [NAD^+], on cHAD [1], the “difference absorption spectroscopy of the ternary charge-transfer complex, 412 n” value was “difference spectroscopy of cHAD·NAD^+·AACoA ternary complex”.
With `NC(=O)C1=CN([C@@H]2O[C@H](COP(=O)(O)OP(=O)(O)OC[C@H]3O[C@@H](n4cnc5c(N)ncnc54)[C@H](O)[C@@H]3O)[C@@H](O)[C@H]2O)C=CC1` [NADH], the “Trp-NADH FRET titration, ex 270 nm, em 460 nm, Hill fit” value at cHAD [2] is “Wild type and Y209A mutant cHAD show exactly the same number of Hill coefficient”.

B1: 3-hydroxyacyl-CoA dehydrogenase from C. elegans, wild type (enzyme, Caenorhabditis elegans)
chain: T1 sequence (P34439 1-298)
notes: 3-hydroxyacyl-CoA dehydrogenase (cHAD), Caenorhabditis elegans, WormBase WBGene00010035, GenBank CAA80153.1; N-terminal domain 9-194, loop 195-201 and C-terminal domain 202-297 described in the structure; vector pEXS-CG (derived from pET-22b(+)); also called cHAD; wild type cHAD; not shown: GST, C-terminal, cleaved
Usually stoichiometry N stands for the number of molecules, sites or subunits per partner or assembly. In general, Km refers to the concentration of substrate that gives half-maximal velocity. By Vmax is commonly meant the top rate of the reaction or transport when substrate is in excess. The kcat is the maximal rate divided by the concentration of active sites. One may read the kcat/Km as the second-order rate constant that governs catalysis at low substrate concentration. With B1, the “stoichiometry N” value in data set [3] was 2. For the same molecule, in “purified protein”, the Km came out at 72.0 ± 13.4 µM, the Vmax came out at 78 µmol/min/mg, the kcat is 45 s⁻¹ and the kcat/Km was found to be 600000 M⁻¹ s⁻¹.

B2: 3-hydroxyacyl-CoA dehydrogenase from C. elegans, R204A/Y209A mutant (enzyme, Caenorhabditis elegans)
chain: T1 sequence (P34439 1-298) with R204A, Y209A
notes: 3-hydroxyacyl-CoA dehydrogenase (cHAD), Caenorhabditis elegans, WormBase WBGene00010035, GenBank CAA80153.1; as m1 with R204A and Y209A; Made by overlapping PCR from the wild type plasmid, ligated into pEXS-CG (BamHI, EcoRI); also called cHAD R204A/Y209A; source: E. coli BL21 (DE3), purified (same procedure as the wild type); not shown: GST, C-terminal, cleaved
Regarding B2, in data set [4], the binding result is “binds”. Moreover, in the data set “purified protein”, the Km was found to be 115.6 ± 24.5 µM, the Vmax turned out to be 18 µmol/min/mg, the kcat came out at 10 s⁻¹ and the kcat/Km is 90000 M⁻¹ s⁻¹.

B3: 3-hydroxyacyl-CoA dehydrogenase from C. elegans, R204A mutant (enzyme, Caenorhabditis elegans)
chain: T1 sequence (P34439 1-298) with R204A
notes: 3-hydroxyacyl-CoA dehydrogenase (cHAD), Caenorhabditis elegans, WormBase WBGene00010035, GenBank CAA80153.1; as m1 with R204A; Made by overlapping PCR from the wild type plasmid, ligated into pEXS-CG (BamHI, EcoRI); also called cHAD R204A; source: E. coli BL21 (DE3), purified (same procedure as the wild type); not shown: GST, C-terminal, cleaved
With B3, the binding result in data set [4] is recorded as “binds”. In “purified protein”, the Km was found to be 83.2 ± 9.7 µM, the Vmax is 48 µmol/min/mg, the kcat was found to be 28 s⁻¹ and the kcat/Km came to 300000 M⁻¹ s⁻¹.

B4: 3-hydroxyacyl-CoA dehydrogenase from C. elegans, Y209A mutant (enzyme, Caenorhabditis elegans)
chain: T1 sequence (P34439 1-298) with Y209A
notes: 3-hydroxyacyl-CoA dehydrogenase (cHAD), Caenorhabditis elegans, WormBase WBGene00010035, GenBank CAA80153.1; as m1 with Y209A; Made by overlapping PCR from the wild type plasmid, ligated into pEXS-CG (BamHI, EcoRI); also called cHAD Y209A; source: E. coli BL21 (DE3), purified (same procedure as the wild type); not shown: GST, C-terminal, cleaved
As for B4, in data set [4], the binding result is listed as “binds”. Besides, in “purified protein”, the Km stood at 50.4 ± 11.0 µM, the Vmax amounted to 30 µmol/min/mg, the kcat amounted to 17 s⁻¹ and the kcat/Km stood at 300000 M⁻¹ s⁻¹.

Source of the values: PMC3999109, “Dimerization Interface of 3-Hydroxyacyl-CoA Dehydrogenase Tunes the Formation of Its Catalytic Intermediate” (PLoS ONE, 2014).
